Laboratory results: patent publication US7399847 (GENERAL HOSPITAL, dated 2008)
Changes are numbered by the printed parent chain.

T1: PSGL-1 amino-terminal deletion beginning at precursor R38 (UniProt Q14242 38-412)
T1 construct: range 38-end (end not numbered), on cells; also called removal of the first 20 amino acids of the N-terminus of the mature PSGL-1
T1 sequence: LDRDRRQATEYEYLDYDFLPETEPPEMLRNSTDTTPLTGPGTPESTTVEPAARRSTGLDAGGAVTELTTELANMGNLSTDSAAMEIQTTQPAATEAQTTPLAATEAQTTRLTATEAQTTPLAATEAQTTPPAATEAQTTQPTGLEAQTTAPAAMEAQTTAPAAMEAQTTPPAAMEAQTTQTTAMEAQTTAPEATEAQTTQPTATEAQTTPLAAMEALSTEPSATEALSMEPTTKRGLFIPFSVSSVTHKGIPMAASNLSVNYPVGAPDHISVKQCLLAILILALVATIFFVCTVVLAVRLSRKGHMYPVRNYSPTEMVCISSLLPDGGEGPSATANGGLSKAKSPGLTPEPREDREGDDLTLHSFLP

T2: PSGL-1 amino-terminal deletion beginning at precursor E58 (UniProt Q14242 58-412)
T2 construct: range 58-end (end not numbered), on cells; also called removal of the first 40 amino acids of the N-terminus
T2 sequence: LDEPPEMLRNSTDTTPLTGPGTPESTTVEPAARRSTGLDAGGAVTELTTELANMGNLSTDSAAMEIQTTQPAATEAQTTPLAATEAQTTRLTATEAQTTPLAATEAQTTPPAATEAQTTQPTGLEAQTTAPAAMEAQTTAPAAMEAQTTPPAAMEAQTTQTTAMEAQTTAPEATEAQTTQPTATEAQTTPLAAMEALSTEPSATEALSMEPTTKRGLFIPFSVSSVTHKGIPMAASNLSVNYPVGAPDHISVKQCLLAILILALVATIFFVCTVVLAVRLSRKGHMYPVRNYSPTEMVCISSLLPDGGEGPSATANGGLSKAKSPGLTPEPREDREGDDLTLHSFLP

T3: PSGL-1 amino-terminal deletion beginning at precursor P78 (UniProt Q14242 78-412)
T3 construct: range 78-end (end not numbered), on cells; also called further deletion of PSGL
T3 sequence: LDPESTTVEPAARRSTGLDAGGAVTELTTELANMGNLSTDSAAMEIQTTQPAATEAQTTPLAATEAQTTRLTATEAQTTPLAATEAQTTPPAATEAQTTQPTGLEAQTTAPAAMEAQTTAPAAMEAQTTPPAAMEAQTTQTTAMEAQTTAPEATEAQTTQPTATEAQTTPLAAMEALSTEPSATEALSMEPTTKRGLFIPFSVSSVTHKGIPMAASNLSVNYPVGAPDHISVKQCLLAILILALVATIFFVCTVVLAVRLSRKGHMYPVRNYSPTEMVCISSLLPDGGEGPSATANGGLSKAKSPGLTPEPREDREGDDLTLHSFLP

T4: PSGL-1 amino-terminal deletion beginning at precursor A98 (UniProt Q14242 98-412)
T4 construct: range 98-end (end not numbered), on cells; also called further deletion of PSGL
T4 sequence: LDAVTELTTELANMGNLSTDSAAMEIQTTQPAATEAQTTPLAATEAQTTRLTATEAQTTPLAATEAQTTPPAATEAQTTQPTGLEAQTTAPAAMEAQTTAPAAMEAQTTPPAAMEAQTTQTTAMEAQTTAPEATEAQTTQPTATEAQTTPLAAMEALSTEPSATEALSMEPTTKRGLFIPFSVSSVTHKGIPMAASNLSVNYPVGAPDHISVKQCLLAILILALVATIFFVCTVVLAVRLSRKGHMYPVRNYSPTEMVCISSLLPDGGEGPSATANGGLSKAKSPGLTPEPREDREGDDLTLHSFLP

T5: PSGL-1 residues 38-57 with tyrosines converted to phenylalanine, on the truncated PSGL-1 lacking the apical … (UniProt Q14242 118-412)
T5 construct: domain: truncated PSGL-1 lacking the apical domain, on cells
T5 sequence: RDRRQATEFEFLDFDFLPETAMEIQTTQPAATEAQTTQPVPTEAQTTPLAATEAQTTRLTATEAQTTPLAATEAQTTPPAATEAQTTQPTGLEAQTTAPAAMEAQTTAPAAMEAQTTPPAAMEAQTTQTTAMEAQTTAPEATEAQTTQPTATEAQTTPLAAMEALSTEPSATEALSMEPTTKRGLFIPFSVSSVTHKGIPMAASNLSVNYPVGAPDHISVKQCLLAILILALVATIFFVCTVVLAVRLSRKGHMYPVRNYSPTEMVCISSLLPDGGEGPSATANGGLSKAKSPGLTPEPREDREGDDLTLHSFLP

T6: PSGL-1 deletion mutant lacking the amino terminal 100 residues (apical domain) (UniProt Q14242 118-412)
T6 construct: range 118-end (end not numbered), on cells; Cotransfected with FTVII; also called Xba1 (label inferred from the order of the endpoints)
T6 sequence: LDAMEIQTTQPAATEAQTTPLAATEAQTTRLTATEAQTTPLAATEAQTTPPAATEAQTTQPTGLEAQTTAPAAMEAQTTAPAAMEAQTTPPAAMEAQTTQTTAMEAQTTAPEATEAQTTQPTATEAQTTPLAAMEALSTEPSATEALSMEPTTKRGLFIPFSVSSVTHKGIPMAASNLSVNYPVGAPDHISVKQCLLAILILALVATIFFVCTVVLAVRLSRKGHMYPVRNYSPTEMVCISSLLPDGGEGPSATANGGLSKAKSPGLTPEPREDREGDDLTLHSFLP

B1: PSGL-1-NH2/CD43 rep. (ligand, not shown: small tags and cut ends)
chain: LQLWDTWADEAEKALGPLLARDRRQATEYEYLDYDFLPETEPPEMLRNSTDTTPLTGPGTPESTTVEPAARRSTGLDAGGAVTELTTELANMGNLSTDSAEFITTNSPETSSRTSGAPVTTAASSLETSRGTSGPPLTMATVSLETSKGTSGPPVTMATDSLETSTGTTGPPVTMTTGSLEPSSGASGPQVSS
notes: range mature amino terminus-117; Cotransfected with FTVIIh; also called PSGL-1-NH2/CD43 repeats; PSGL-1 apical domain on the CD43 repeat region
B2: Factor VIII-CD43 synthetic P-selectin ligand (designed binder)
chain: TGDYYEDSYEDISITTNSPETSSRTSGAPVTTAASSLETSRGTSGPPLTMATVSLETSKGTSGPPVTMATDSLETSTGTTGPPVTMTTGSLEPSSGASGPQVSS
modifications: tyrosine sulfation site of Factor VIII; sLe^x (FTVIIh cotransfected)
notes: also called CD43-F8; not shown: flu hemagglutinin oligopeptide tag
B3: PSGL-1 residues 38-57 (wildtype) appended to the CD43 mucin core (ligand, not shown: small tags and cut ends)
chain: RDRRQATEYEYLDYDFLPETITTNSPETSSRTSGAPVTTAASSLETSRGTSGPPLTMATVSLETSKGTSGPPVTMATDSLETSTGTTGPPVTMTTGSLEPSSGASGPQVSS
modifications: as the filing concludes: sulfated tyrosines at 46, 48 and 51; sLe^x on threonines 44 and 57
notes: Cotransfected with FTVII
B4: PSGL-1 residues 38-57 with threonines converted to alanines, on the CD43 repeat elements and transmembrane domain (ligand, not shown: small tags and cut ends)
chain: B3 chain with T7A, T20A
B5: PSGL-1 residues 38-57 with tyrosines converted to phenylalanine, on the CD43 repeat elements and transmembrane domain (ligand, not shown: small tags and cut ends)
chain: B3 chain with Y9F, Y11F, Y14F
B6: P-selectin:immunoglobulin fusion protein (Fc fusion, UniProt P16109 42-321, looked up)
chain: WTYHYSTKAYSWNISRKYCQNRYTDLVAIQNKNEIDYLNKVLPYYSSYYWIGIRKNNKTWTWVGTKKALTNEAENWADNEPNNKRNNEDCVEIYIKSPSAPGKWNDEHCLKKKHALCYTASCQDMSCSKQGECLETIGNYTCSCYPGFYGPECEYVRECGELELPQHVLMNCSHPLGNFSFNSQCSFHCTDGYQVNGPSKLECLASGIWTNKPPQCLAAQCPPLKIPERGNMTCLHSAKAFQHQSSCSFSCEEGFALVGPEVVQCTASGVWTAPAPVCKA
notes: domain: lectin, EGF-related, and first two short consensus repeat related domains; Made in COS cells; captured from supernatant on wells coated with goat anti-human IgG Fc; also called soluble P-selectin; P-selectin Ig chimera; not shown: hinge, CH2, and CH3 domains of human IgG1

Tests used:
[1] = target: B6; assay: adhesion of 51Cr-labelled transfected COS cells to immobilized P-selectin:Ig
Description: (§1) To assess the importance of these residues, the tyrosines were converted to phenylalanine (FIG. 9A). In a second peptide, the threonines were converted to alanines. In addition, a third peptide, containing a quintuple mutation, was prepared such that both conversions were made in a single peptide. […] Cells expressing the resulting chimeras were tested for their ability to bind to immobilized P-selectin (FIG. 9A). […] Expression of the flu tag or sLe^x epitope was not affected in these cells.

[2] = target: B6; assay: static binding assay, transfected COS cells (with FTVIIh) on plastic coated with P-selectin Ig
Description: The cells were then loaded with 100 µl ^51CrO_4 (1 mCi/ml; DuPont, Boston, Mass.) in 0.9% NaCl plus 100 ml medium by incubating them at 37° C. for 1 hour. Loaded cells were washed twice in PBS and resuspended in 0.2% BSA, 0.15 M NaCl, 3 mM CaCl_2. Variation in labeling rate (counts incorporated per cell) between cells prepared in parallel with the same batch of labeled chromate was typically minimal. […] After the plate was washed twice with PBS, additional protein-binding sites were blocked by an overnight incubation with 200 µl 3% BSA in PBS. The plate was washed with PBS four times and incubated with 200 µl of fusion protein supernatants for 2 hours. Following three PBS washes and one additional wash (in 0.2% BSA, 0.15 M NaCl, 3 mM CaCl_2), 2×10^5 cells/well (in 200 µl 0.2% BSA, 0.15 M NaCl, 3 mM CaCl_2) were added and allowed to bind for 15 minutes at room temperature while the plate rotated on a rotary platform (80 rpm). The plate was washed three times by filling the wells with 200 µl 0.15 M NaCl/3 mM CaCl_2 and then inverting the plate. Adherent cells were lysed by the addition of 200 µl 2% SDS, and labeled chromate was counted with a gamma ray spectrometer.

[3] = target: T1, PSGL-1 amino-terminal deletion …; assay: adhesion of 51Cr-labelled transfected COS cells to immobilized P-selectin:Ig
Description: as §1

[4] = target: T2, PSGL-1 amino-terminal deletion …; assay: as above
Description: as §1

[5] = target: T3, PSGL-1 amino-terminal deletion …; assay: as above
Description: as §1

[6] = target: T4, PSGL-1 amino-terminal deletion …; assay: as above
Description: as §1

[7] = target: T5, PSGL-1 residues 38-57 with tyrosines …; assay: as above
Description: as §1

[8] = target: T6, PSGL-1 deletion mutant lacking the …; assay: as above
Description: as §1

Binder: B1
binding result [1]: binds

Binder: B2
binding result [2]: binds

Binder: B3
binding result [1]: binds

Binder: B4
binding result [1]: binds

Binder: B5
binding result [1]: no binding

Binder: B6
binding result [3]: binds
binding result [4]: no binding
binding result [5]: no binding
binding result [6]: no binding
binding result [7]: no binding
binding result [8]: no binding
